These results are taken from patent US20220089727A1 (CHANGCHUN GENESCIENCE PHARMACEUTICAL, published 2022).

Changes are numbered by the printed parent chain.

T1: monkey CD47ECD-linker peptide-7his (monkey)
T1 construct: also called Monkey CD47-his
T1 chain: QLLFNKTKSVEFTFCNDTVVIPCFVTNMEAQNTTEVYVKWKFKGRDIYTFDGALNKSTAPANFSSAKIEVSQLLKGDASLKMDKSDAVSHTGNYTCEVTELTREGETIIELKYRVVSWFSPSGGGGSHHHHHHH

B1: 059-1.20.1 (antibody, mouse IgG1, V domains shown)
VH: EVQLQQSGPELVKPGASVNMSCKASGYTFTNYFLHWVKQKPGQGLEWIGYINPYNDGTNYNENFKGKATLTSDKSSSTAYMELSSLTSEDSAVYYCAKGGWFSMDYWGQGTSVTVSS
VL: DVVMTQTPLSLPVSLGDQASISCRSSQSLVHSNGKTYLQWYLQKPGQSPKLLIYKVSNRFSGVPDRFSGSGSGTDFTLKISRVEAEDLGVYFCSQSTHVYTFGGGTKLEIK
notes: also called 059-1.20.1 purified antibody
B2: 059-1.82.1 (antibody, mouse IgG3, V domains shown)
VH: B1 VH with N19K, F33V, L34M, N63K
VL: B1 VL
B3: 059-1.30.1 (antibody, mouse IgG1, V domains shown)
VH: EVQLQQSGPELVKPGASVRMSCKASGYTFTNYVMHWVKQKPGQGLEWIGYINPYNDGTKYSEKFKGKATLTSDKSSITAYMELSSLTSEDSAVYYCAKGGLFTFDYWGQGTTLTVSS
VL: DVVMTQTPLSLPVSLGDQASISCRSSQSLVHSKGNTYLHWYLQKPGQSPKLLIYRVSNRFSGVPDRFSGSGSGTDFTLKISRVEAEDLGVYFCSQSTHVPFTFGSGTKLEIK
notes: also called 059-1.30.1 purified antibody
B4: 059-1.43.1 (antibody, mouse IgG1, V domains shown)
VH: QVQLQQSGAELVRPGASVTLSCKASGYTFTDYEMHWVKQTPVHGLEWIGAIDPETGGTAYNQKFKGKATLTADKSSSTAYMELRSLTSEDSAVYYCTRGTPYAMDYWGQGTSVTVSS
VL: B3 VL with K33N, R55K, F101W, S105G
notes: also called 059-1.43.1 purified antibody
B5: 059-1.51.2 (antibody, mouse IgM, V domains shown)
VH: EVQLQQSGPELVKPGASVKMSCKASGYTFTNYVMHWMKQKPGQGLEWIGYINPYNDDTKYNEKFKDRATLTSDKSSSTAYMELSSLTSEDSAVYYCAKGGYYSMDYWGQGTSVTVSS
VL: B3 VL with R55K
notes: Mouse hybridoma antibody; light chain type kappa
B6: 059-1.11.1 (antibody, mouse IgM, V domains shown)
VH: B4 VH
VL: B3 VL with K33N, R55K, D65E, F101W, S105G
notes: Mouse hybridoma antibody; the subclass paragraph gives the light chain type as kappa; also called 059-1.11.1 purified antibody
B7: 059-1.100.5 (antibody, mouse IgM, V domains shown)
VH: B4 VH with K63N
VL: B3 VL with K33N, R55K, F101W, S105G
notes: Mouse hybridoma antibody; light chain type kappa; also called 059-1.100.5 purified antibody
B8: B6H12 (commercialized CD47 antibody, purchased from Abcam, catalog No. ab3283) (antibody)
chain: EVQLVESGGDLVKPGGSLKLSCAASGFTFSGYGMSWVRQTPDKRLEWVATITSGGTYTYYPDSVKGRFTISRDNAKNTLYLQIDSLKSEDTAIYFCARSLAGNAMDYWGQGTSVTVSSGGGGSGGGGSGGGGSDIVMTQSPATLSVTPGDRVSLSCRASQTISDYLHWYQQKSHESPRLLIKFASQSISGIPSRFSGSGSGSDFTLSINSVEPEDVGVYYCQNGHGFPRTFGGGTKLEIK

The first test addresses T1, monkey CD47ECD-linker peptide-7his. The experiment in a line: ELISA, monkey CD47-his coated at 1 µg/ml, cell culture supernatant.
B1 came in with an OD450 of 4 OD450.

In the case of B2, the OD450 came to 3.9 OD450.

Molecule B3 showed an OD450 of 4 OD450.

For B4, the OD450 was 4 OD450.

B5 yielded an OD450 of 0.634 OD450.

B6: the OD450 is 4 OD450.

B7 gave an OD450 of 0.617 OD450.

The next test deals with T2, CD47 on the surface of Jurkat cells (human, UniProt Q08722 19-323). Put plainly: cell-based or functional assay.
Consider B1, for which the phagocytic index was 43 Jurkat cells phagocytized per 100 macrophages.

For the molecule B2, the phagocytic index is 74 Jurkat cells phagocytized per 100 macrophages.

For the molecule B3, the phagocytic index is 70 Jurkat cells phagocytized per 100 macrophages.

B4: the phagocytic index is 79 Jurkat cells phagocytized per 100 macrophages.

On to B8, for which the phagocytic index was 20 Jurkat cells phagocytized per 100 macrophages.

The target in another test is T3, human CD47ECD-linker peptide-7his (human, UniProt Q08722 19-139).
T3 construct: also called hCD47-his; human CD47-his
The experiment in a line: ELISA, hCD47-his coated at 1 µg/ml, cell culture supernatant. A general note: An ELISA detects its analyte on a solid surface through an enzyme-linked reagent.
On to B1, for which the OD450 is 4 OD450.

Molecule B2 came in with an OD450 of 4 OD450.

In turn, B3 gave an OD450 of 4 OD450.

Consider B4, for which the OD450 was determined as 4 OD450.

B5 gave an OD450 of 0.771 OD450.

On to B6, for which the OD450 turned out to be 3.67 OD450.

For the molecule B7, the OD450 was 0.81 OD450.

The next test addresses T2, CD47 on the surface of Jurkat cells. The experiment in a line: cell-based or functional assay. This is another data set of the same source.
As for B1, the “Apoptotic rate (%)” value turned out to be 33%.

B2: the “Apoptotic rate (%)” value turned out to be 24%.

For B3, the “Apoptotic rate (%)” value was found to be 48%.

Consider B4, for which the “Apoptotic rate (%)” value was determined as 37%.

For the molecule B8, the “Apoptotic rate (%)” value came out at 8%.

Another test has the same target. Put plainly: flow cytometry on Jurkat cells, hybridoma supernatant, anti-mouse IgG Fc FITC. For orientation: Flow cytometry measures light scatter and fluorescence of single cells or particles in a stream.
B1 displayed an MFI of 15300 MFI.

In the case of B2, the MFI was 9550 MFI.

B3: the MFI is 9950 MFI.

Turning to B4, the MFI was 18500 MFI.

For the molecule B5, the MFI was 144 MFI.

Regarding B6, the MFI came to 6630 MFI.

B7 yielded an MFI of 216 MFI.

The target of the next test is T4, human CD47-linker peptide-hIgG1Fc (human).
T4 construct: also called Human CD47-hFc; human CD47-hFc
The experiment in a line: competition ELISA: human CD47-hFc coated, blocked ligand human SIRP-his.
Take B1: the “IC50 (read off the curve)” value was about 1 µg/mL.

On to B2, for which the “IC50 (read off the curve)” value is about 1 µg/mL.

As for B3, the “IC50 (read off the curve)” value was about 1 µg/mL.

For the molecule B4, the “IC50 (read off the curve)” value was about 0.9 µg/mL.

In the case of B8, the “IC50 (read off the curve)” value was about 1 µg/mL.

A further test deals with T5, human CD47 (analyte in the Biacore assay) (human, UniProt Q08722 19-139, limits assumed).
T5 construct: also called human CD47 protein
Put plainly: SPR (Biacore T200), antibody captured by anti-mouse Fc, human CD47 as analyte. A general note: SPR reads the build-up and loss of mass on a sensor chip optically.
In general, Kd refers to the equilibrium constant for the complex coming apart. In general, koff refers to a measure of how fast the partners let go of each other. The term kon denotes the rate constant with which the complex forms. As for B1, the Kd stood at 25.3 nM, the koff stood at 0.00548 s⁻¹ and the kon was 217000 M⁻¹ s⁻¹.

As for B2, binding was put at a Kd of 14.2 nM, the koff worked out at 0.00364 s⁻¹ and the kon was 256000 M⁻¹ s⁻¹.

The molecule B3 returned a Kd of 30.1 nM, a koff of 0.0128 s⁻¹ and a kon of 424000 M⁻¹ s⁻¹.

With B4, the dissociation constant Kd stood at 28.3 nM, the koff is 0.00666 s⁻¹ and the kon is 236000 M⁻¹ s⁻¹.

B5: the Kd turned out to be 27.3 nM, the koff was determined as 0.0101 s⁻¹ and the on-rate (kon) stood at 370000 M⁻¹ s⁻¹.

B6: binding was characterised by a dissociation constant (Kd) of 15.5 nM, the koff amounted to 0.00402 s⁻¹ and the kon was 260000 M⁻¹ s⁻¹.

Molecule B7 showed a Kd of 44 nM, a koff of 0.0069 s⁻¹ and a kon of 157000 M⁻¹ s⁻¹.

Regarding B8, binding was characterised by a dissociation constant (Kd) of 27.5 nM, the koff was determined as 0.00364 s⁻¹ and the kon turned out to be 132000 M⁻¹ s⁻¹.

A further test concerns the target T4, human CD47-linker peptide-hIgG1Fc. Put plainly: competition ELISA: CD47-hFc coated, antibody titrated against human SIRP-his (competitor), anti-His detection.
The EC50 is the midpoint of the concentration-response curve. B1 had a concentration for a half-maximal effect (EC50) of 1190 nM.

The molecule B2 displayed an EC50 of 1030 nM.

With B3, the EC50 amounted to 1030 nM.

The molecule B4 yielded an EC50 of 850 nM.

Molecule B6 came in with an EC50 of 2340 nM.
